Assay results: PMC5987717

Tests used:
Assay in all cases: FRET or BRET
[1] = target: hRIIα-RLuc8 (PKA regulatory subunit RIIα conjugated to mutant Renilla luciferase) (human) (UniProt P13861)
[2] = target: hRIIβ-RLuc8 (PKA regulatory subunit RIIβ conjugated to mutant Renilla luciferase) (human) (UniProt P31323)
[3] = target: hRIβ-Rluc8 (PKA regulatory subunit RIβ conjugated to mutant Renilla luciferase) (human) (UniProt P31321)
hRIβ-Rluc8 (PKA regulatory subunit RIβ conjugated to mutant Renilla luciferase) (human), sequence (P31321 whole entry, change not shown): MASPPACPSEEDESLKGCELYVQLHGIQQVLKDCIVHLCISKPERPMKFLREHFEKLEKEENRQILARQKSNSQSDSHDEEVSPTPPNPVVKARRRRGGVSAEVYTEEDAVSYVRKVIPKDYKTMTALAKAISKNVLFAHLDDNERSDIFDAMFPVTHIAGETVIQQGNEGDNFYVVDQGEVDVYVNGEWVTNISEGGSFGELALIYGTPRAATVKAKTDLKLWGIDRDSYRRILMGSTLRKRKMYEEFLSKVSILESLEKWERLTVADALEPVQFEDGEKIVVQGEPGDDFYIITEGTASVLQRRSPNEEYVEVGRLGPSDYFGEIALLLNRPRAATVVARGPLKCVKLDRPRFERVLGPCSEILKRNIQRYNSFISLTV

hRIIβ-RLuc8 (PKA regulatory subunit RIIβ conjugated to mutant Renilla luciferase) (human), sequence (P31323 whole entry, change not shown): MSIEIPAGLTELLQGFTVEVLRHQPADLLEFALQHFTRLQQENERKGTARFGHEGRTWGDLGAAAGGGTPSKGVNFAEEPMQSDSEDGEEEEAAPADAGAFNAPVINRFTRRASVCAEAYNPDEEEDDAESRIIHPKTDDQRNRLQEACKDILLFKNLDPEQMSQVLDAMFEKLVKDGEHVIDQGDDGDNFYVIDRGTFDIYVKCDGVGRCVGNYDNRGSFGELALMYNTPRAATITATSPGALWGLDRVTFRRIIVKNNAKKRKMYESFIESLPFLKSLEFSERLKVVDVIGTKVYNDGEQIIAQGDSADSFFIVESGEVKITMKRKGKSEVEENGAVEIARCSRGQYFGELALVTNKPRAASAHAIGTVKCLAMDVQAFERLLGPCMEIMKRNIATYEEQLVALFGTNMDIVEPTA
hRIIα-RLuc8 (PKA regulatory subunit RIIα conjugated to mutant Renilla luciferase) (human), sequence (P13861 whole entry, change not shown): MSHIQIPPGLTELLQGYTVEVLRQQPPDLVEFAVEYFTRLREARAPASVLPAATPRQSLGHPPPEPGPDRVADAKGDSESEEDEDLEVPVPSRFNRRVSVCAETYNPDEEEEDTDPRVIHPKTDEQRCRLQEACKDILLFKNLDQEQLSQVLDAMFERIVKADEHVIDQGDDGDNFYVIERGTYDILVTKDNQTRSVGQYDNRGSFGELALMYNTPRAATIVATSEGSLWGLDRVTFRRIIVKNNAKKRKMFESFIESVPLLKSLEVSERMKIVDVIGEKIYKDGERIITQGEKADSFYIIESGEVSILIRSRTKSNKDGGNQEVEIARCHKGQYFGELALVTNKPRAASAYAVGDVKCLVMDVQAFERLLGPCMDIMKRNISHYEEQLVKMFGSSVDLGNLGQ

## GFP-hCα (GFP-tagged PKA catalytic subunit Cα) (from UniProt P17612 1-351) (natural protein)
[1]
  BRET signal left after Fsk/IBMX (percent of the unstimulated sensor): 25%
[2]
  BRET signal left after Fsk/IBMX (percent of the unstimulated sensor): 28%
[3]
  BRET signal left after Fsk/IBMX (percent of the unstimulated sensor): 75%
